T1: short pAgo (SPARTA);TIR-APAZ (SPARTA) (Crenotalea thermophila;Crenotalea …, UniProt A0A1I7NFD7;A0A1I7NFG5 1-507;1-450, |)
T1 sequence 1: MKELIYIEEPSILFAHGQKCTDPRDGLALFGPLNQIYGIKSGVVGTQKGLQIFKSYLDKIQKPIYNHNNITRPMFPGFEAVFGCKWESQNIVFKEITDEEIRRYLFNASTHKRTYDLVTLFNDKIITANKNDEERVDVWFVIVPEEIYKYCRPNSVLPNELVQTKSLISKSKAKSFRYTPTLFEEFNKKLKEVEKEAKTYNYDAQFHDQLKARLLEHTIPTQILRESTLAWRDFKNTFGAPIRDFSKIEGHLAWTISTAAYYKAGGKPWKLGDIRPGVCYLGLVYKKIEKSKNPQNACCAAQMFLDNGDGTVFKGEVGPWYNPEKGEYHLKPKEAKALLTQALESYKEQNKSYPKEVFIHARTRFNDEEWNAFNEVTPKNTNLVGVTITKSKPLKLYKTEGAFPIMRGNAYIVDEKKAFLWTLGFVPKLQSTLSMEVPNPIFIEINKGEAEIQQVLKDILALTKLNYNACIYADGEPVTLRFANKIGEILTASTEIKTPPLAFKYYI
T1 sequence 2: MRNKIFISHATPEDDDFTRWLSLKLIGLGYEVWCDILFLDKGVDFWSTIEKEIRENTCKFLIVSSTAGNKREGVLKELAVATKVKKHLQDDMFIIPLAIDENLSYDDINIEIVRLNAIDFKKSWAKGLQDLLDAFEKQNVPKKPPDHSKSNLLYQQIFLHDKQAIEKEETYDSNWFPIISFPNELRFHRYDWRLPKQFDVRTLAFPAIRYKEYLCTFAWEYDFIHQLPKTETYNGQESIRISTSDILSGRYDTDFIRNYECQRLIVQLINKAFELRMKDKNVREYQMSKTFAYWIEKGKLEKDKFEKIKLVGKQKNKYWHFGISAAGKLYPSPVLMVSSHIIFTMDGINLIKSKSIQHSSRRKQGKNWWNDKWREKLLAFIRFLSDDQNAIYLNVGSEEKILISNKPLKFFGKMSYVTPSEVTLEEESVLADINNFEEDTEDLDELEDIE

B1: gRNA-target ssDNA (25 nt target) (DNA:RNA)
RNA: AAACGGCUCUAAUCUAUUAGU
DNA: CAACTAATAGATTAGAGCCGTTTAT
modifications: 5'-phosphate on gRNA

How the values were obtained:
[1] = target: Crenotalea thermophila SPARTA complex (heterodimer of TIR-APAZ and short pAgo) (Crenotalea thermophila); experiment: cryo-EM structure
[2] = target: T1, short pAgo (SPARTA);TIR-APAZ (SPARTA); experiment: cryoEM structure

| Molecule | stoichiometry N [1] | binding result [2] |
| --- | --- | --- |
| Crenotalea thermophila SPARTA complex (heterodimer of TIR-APAZ and short pAgo) | 4 | – |
| B1 | – | binds |
